Experimental data published in PMC10359602, “High fidelity DNA strand-separation is the major specificity determinant in DNA methyltransferase CcrM’s catalytic mechanism”.

Assays:
CcrM WT [1] = molecular target: T1, CcrM WT (Caulobacter crescentus, UniProt P0CAW2 1-358); assay: equilibrium Trp fluorescence; 60 uM sinefungin; smaller change than dsDNA; Anisotropy: 10 nM FAM-DNA, 0-1000 nM protein, 30 uM SAH, 100 mM HEPES, 1 mM EDTA, 20 mM NaCl, pH 8, room temperature, 20 min; Trp fluorescence: same buffer plus 2 mM DTT, 500 nM protein, 60 uM sinefungin, 5 uM DNA; conditions: protein: recombinant; chain copies: 2; single strand
T1 sequence (P0CAW2 whole entry): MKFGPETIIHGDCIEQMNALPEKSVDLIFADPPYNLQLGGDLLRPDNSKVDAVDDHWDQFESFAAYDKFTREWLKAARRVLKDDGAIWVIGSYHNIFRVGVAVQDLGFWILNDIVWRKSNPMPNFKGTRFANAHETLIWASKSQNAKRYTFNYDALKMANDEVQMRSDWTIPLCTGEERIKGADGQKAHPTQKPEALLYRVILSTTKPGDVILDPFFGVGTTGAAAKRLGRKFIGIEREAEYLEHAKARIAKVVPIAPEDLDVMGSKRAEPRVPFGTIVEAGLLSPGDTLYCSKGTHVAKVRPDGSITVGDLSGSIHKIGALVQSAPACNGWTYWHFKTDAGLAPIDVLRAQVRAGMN

CcrM WT [2] = molecular target: T1, CcrM WT; assay: fluorescence anisotropy; 30 uM SAH; Hill h = 2.1; apparent Kd; Anisotropy: 10 nM FAM-DNA, 0-1000 nM protein, 30 uM SAH, 100 mM HEPES, 1 mM EDTA, 20 mM NaCl, pH 8, room temperature, 20 min; Trp fluorescence: same buffer plus 2 mM DTT, 500 nM protein, 60 uM sinefungin, 5 uM DNA; conditions: protein: recombinant; chain copies: 2; label: 5' 6-FAM on strand 1; blunt
CcrM WT [3] = molecular target: T1, CcrM WT; assay: fluorescence anisotropy; 30 uM SAH; Hill h = 2.5; apparent Kd; Anisotropy: 10 nM FAM-DNA, 0-1000 nM protein, 30 uM SAH, 100 mM HEPES, 1 mM EDTA, 20 mM NaCl, pH 8, room temperature, 20 min; Trp fluorescence: same buffer plus 2 mM DTT, 500 nM protein, 60 uM sinefungin, 5 uM DNA; conditions: protein: recombinant; chain copies: 2; label: 5' 6-FAM on strand 1; blunt
CcrM R350A = CcrM R350A (Caulobacter crescentus, UniProt P0CAW2 1-358, R350A); assay: fluorescence anisotropy; 30 uM SAH; Hill h = 1.3; apparent Kd, above tested range 0-1000 nM; Anisotropy: 10 nM FAM-DNA, 0-1000 nM protein, 30 uM SAH, 100 mM HEPES, 1 mM EDTA, 20 mM NaCl, pH 8, room temperature, 20 min; Trp fluorescence: same buffer plus 2 mM DTT, 500 nM protein, 60 uM sinefungin, 5 uM DNA; conditions: protein: recombinant; chain copies: 2; label: 5' 6-FAM on strand 1; blunt
Sequence of CcrM R350A (P0CAW2 whole entry R350A): as the sequence (P0CAW2 whole entry) above, with R350A counted along it

TCACTGTACTCTGACTCGCCTGACATGAC (ssDNA) [cognate ssDNA]
binding result (CcrM WT [1]): binds

B1: NC-FAM (dsDNA)
DNA 1: TCACTGTACTCTGACTGGCCTGACATGAC
DNA 2: GTCATGTCAGGCCAGTCAGAGTACAGTGA
modifications: N6-methyl-A at position 14 (5' to 3') of strand 2
Kd (CcrM WT [2]): 0.135 ± 0.0076 µM

B2: C1-FAM (dsDNA)
DNA 1: TCACTGTACTCTGACTCGCCTGACATGAC
DNA 2: GTCATGTCAGGCGAGTCAGAGTACAGTGA
modifications: N6-methyl-A at position 14 (5' to 3') of strand 2 (hemimethylated)
Kd (CcrM WT [3]): 0.15 ± 0.0054 µM | Kd (CcrM R350A): 2.11 ± 0.193 µM
